Patent US20100021448

Target: T1, I-CreI variant RRN (R44, R68, N70, N75)
T1 chain: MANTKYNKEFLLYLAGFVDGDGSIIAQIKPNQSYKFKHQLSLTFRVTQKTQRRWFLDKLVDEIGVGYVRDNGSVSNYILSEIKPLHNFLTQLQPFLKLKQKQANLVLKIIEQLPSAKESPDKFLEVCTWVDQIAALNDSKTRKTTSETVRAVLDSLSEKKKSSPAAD

B1: I-CreI variant DRN (D44, R68, N70, N75) (protein)
chain: MANTKYNKEFLLYLAGFVDGDGSIIAQIKPNQSYKFKHQLSLTFDVTQKTQRRWFLDKLVDEIGVGYVRDNGSVSNYILSEIKPLHNFLTQLQPFLKLKQKQANLVLKIIEQLPSAKESPDKFLEVCTWVDQIAALNDSKTRKTTSETVRAVLDSLSEKKKSSPAAD
cleavage of chimeric DNA targets on co-expression: no cleavage of chimeric targets could be detected by co-expression of the same weak mutants
